From patent US20170022281A1 (AbbVie / Abbott, published 2017)

Assays:
[1] = biological target: T1, human PRLR on cells (human, UniProt P16471 25-622); test: cell-based or functional assay
T1 sequence: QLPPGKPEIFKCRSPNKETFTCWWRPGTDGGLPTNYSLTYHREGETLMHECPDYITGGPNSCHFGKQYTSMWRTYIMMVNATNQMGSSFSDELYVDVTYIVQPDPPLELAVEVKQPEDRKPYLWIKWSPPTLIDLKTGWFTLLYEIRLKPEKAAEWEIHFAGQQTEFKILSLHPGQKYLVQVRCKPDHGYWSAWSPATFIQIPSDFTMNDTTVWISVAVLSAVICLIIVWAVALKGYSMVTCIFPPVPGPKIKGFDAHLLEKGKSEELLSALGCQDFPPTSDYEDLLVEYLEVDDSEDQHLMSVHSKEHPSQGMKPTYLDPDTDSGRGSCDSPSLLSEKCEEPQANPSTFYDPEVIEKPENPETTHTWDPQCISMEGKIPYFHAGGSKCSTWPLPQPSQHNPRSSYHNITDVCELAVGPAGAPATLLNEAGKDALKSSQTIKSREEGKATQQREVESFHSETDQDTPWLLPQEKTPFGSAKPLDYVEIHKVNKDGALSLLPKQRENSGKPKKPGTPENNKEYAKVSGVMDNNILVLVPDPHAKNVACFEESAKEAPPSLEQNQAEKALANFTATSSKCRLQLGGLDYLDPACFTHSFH

[2] = biological target: cyno PRLR on Baf3-cyPRLR cells (cyno); test: cell-based or functional assay
[3] = biological target: T2, mouse PRLR ECD-Fc fusion protein (mouse, UniProt Q08501 20-229); test: ELISA on ECD
T2 construct: extracellular domain; not shown: Fc region (captured by goat anti-human Fc)
T2 sequence (looked up): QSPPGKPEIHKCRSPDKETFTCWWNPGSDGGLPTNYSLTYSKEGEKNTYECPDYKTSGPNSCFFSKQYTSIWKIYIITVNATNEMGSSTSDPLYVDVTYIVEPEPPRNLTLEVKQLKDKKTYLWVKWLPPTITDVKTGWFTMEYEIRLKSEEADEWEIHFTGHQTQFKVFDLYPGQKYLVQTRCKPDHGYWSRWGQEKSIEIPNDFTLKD
In short: (§1)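 PRLR was captured on blocked plates for 1 h, then incubated 1 h with serial antibody dilutions in PBS pH 7.4/0.05% Tween 20 containing 10% Superblock. HRP secondary and TMB gave signal read at 450 nm, and EC50 came from curve fitting.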

[4] = biological target: T3, human PRLR ECD-Fc fusion protein (human, UniProt P16471 25-233); test: ELISA on ECD
T3 construct: not shown: Fc region (captured by goat anti-human Fc)
T3 sequence: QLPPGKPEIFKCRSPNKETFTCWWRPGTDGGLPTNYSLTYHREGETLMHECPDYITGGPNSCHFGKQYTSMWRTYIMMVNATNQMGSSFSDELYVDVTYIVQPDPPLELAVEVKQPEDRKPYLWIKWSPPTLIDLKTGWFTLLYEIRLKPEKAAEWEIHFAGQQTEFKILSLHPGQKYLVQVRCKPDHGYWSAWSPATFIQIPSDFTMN
In short: as §1

[5] = biological target: T4, rat PRLR ECD-Fc fusion protein (rat, UniProt P05710 20-229); test: ELISA on ECD
T4 construct: extracellular domain; not shown: Fc region (captured by goat anti-human Fc)
T4 sequence (looked up): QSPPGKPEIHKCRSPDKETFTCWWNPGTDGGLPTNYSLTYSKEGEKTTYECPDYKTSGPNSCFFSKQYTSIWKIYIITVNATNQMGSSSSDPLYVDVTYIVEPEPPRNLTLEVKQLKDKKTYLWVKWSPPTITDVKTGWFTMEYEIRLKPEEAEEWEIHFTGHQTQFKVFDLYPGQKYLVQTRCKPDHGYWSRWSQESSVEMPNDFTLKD
In short: as §1

[6] = biological target: T1, human PRLR on cells; test: FACS T47D 10 ug/mL
[7] = biological target: T5, cyno PRLR (Biacore antigen) (cyno, UniProt A0A2K5WXK1 25-234); test: SPR Biacore
T5 construct: also called cyPRLR
T5 sequence: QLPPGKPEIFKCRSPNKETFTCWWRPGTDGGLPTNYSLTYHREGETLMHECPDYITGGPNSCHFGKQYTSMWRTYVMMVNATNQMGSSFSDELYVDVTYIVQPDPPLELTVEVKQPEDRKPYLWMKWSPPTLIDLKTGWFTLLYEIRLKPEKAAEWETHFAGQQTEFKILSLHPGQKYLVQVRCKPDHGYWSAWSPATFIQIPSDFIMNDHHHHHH
In short: (§2)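 Association rate, dissociation rate and dissociation constant were measured by surface plasmon resonance on a Biacore instrument. PRLR antigen was tested at 600 nM, 66.67 nM and 7.41 nM, a 3-point, 9-fold dilution series. Constants came from a 1:1 binding model fit (local Rmax, mass-transport term included) in Biacore T200 Evaluation Software.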

[8] = biological target: T6, murine PRLR (Biacore antigen) (murine, UniProt Q08501 20-229, limits assumed); test: SPR Biacore
T6 construct: also called muPRLR
T6 sequence (looked up): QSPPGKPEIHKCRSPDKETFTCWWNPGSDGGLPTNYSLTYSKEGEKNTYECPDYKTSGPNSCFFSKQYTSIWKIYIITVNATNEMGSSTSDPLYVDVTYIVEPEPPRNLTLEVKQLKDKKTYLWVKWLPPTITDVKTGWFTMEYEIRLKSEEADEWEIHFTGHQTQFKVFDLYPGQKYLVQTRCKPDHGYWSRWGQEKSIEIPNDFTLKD
In short: as §2

[9] = biological target: T7, human PRLR (Biacore antigen) (human, UniProt P16471 25-234, limits assumed); test: SPR Biacore
T7 construct: The construct injected over captured antibody is not described (a soluble form is likely); also called huPRLR
T7 sequence: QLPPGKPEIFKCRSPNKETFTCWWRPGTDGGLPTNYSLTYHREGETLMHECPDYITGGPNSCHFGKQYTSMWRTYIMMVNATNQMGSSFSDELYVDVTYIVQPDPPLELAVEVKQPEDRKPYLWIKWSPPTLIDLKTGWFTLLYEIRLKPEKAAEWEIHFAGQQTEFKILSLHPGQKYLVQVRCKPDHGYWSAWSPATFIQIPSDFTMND
In short: as §2

[10] = biological target: T8, mouse PRLR on Baf3-mPRLR cells (mouse, UniProt Q08501 20-608); test: cell-based or functional assay
T8 sequence (looked up): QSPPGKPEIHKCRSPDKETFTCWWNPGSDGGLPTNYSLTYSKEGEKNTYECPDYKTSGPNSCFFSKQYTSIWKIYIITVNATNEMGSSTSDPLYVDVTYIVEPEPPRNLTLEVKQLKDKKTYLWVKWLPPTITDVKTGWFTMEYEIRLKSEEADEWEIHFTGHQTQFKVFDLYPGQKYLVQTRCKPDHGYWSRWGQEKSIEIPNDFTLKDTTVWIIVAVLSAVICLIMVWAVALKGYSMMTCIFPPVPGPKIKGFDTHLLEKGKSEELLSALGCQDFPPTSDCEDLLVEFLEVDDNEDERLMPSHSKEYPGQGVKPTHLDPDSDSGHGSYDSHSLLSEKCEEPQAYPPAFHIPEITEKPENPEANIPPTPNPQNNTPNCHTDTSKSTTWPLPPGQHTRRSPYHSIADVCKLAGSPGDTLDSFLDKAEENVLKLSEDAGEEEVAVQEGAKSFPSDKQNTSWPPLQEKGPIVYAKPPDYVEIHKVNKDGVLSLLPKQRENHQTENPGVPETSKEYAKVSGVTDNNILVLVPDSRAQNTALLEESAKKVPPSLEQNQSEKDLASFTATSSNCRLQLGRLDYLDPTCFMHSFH

[11] = biological target: T9, rat PRLR on Nb2-11 rat lymphoma cells (rat, UniProt P05710 20-610); test: cell-based or functional assay
T9 sequence (looked up): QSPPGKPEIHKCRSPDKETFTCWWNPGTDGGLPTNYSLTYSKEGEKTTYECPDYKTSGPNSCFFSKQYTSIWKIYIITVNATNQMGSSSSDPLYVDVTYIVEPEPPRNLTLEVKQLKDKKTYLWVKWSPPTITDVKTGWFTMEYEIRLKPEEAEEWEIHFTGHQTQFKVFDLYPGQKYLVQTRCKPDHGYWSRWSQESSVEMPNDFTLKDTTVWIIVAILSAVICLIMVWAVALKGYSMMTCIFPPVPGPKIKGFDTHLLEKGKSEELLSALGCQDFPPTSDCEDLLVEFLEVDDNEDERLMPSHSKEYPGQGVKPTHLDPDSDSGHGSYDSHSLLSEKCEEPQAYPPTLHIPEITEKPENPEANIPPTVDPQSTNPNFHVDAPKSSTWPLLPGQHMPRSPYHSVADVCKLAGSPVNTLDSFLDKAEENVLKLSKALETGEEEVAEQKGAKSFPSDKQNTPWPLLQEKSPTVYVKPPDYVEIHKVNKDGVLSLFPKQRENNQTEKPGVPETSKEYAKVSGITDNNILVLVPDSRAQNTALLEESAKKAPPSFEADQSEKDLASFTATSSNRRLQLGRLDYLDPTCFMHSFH

[12] = biological target: T9, rat PRLR on Nb2-11 rat lymphoma cells; test: FACS Nb2-11 20 ug/mL
Description: (§3) Nb2-11 and Baf3-xPRLR cells were resuspended in FACS buffer (PBS+1% FBS) at 2 millions cells/mL. Cells were added to round bottom 96-well plate (100 uL/well) and treated with testing PRLR antibodies for 1 hr at 4 C. Cells were then washed with FACS buffer twice and incubated with 2nd antibody conjugated to ALEXA488 (Invitrogen) for 1 hr at 4 C. After two washes in FACS buffer, cells were resuspended in 1% formaldehyde in PBS. Cells were analyzed using LSRII flowcytometer.

[13] = biological target: T8, mouse PRLR on Baf3-mPRLR cells; test: FACS Baf3-mPRLR 10 ug/mL
Description: as §3

B1: Ab8 (antibody, V domains shown)
VH: EVQLQQSGPELVKPGASVKISCKASGYTFTDYNIHWVKQSHGKSLEWIGYIYPNNDGTGYNQKFKSKATLTVDNSSSTAYMEVRSLTSEDSAVYYCARGDGNYVGDMDYWGQGTSVTVSS
VL: DIQMTQSPASLSASVGETVTITCRASENIYSYLAWYQQKQGKPPQLLVYNAKTLAEGVPSRFSGGGSGTQFSLKINSLQPEDFGSYYCQHHYATPFTFGSGTKLEIK
notes: murine monoclonal, isotype G2b; also called murine Ab8
Baf3-hPRLR proliferation IC50 [1]: 1.15 mg/L | T47D pPRLR ELISA IC50 [1]: 0.219 µg/mL | Baf3-cyPRLR proliferation IC50 [2]: 1.64 mg/L | EC50 [3]: 0.342 nM | EC50 [4]: 0.098 nM | EC50 [5]: 0.205 nM | FACS GeoMean-neg [6]: 1530 | Kd [7]: 2.2 nM | koff [7]: 0.00116 s⁻¹ | kon [7]: 526000 M⁻¹ s⁻¹ | Kd [8]: 259 nM | koff [8]: 0.0466 s⁻¹ | kon [8]: 180000 M⁻¹ s⁻¹ | Kd [9]: 0.153 nM | koff [9]: 8.19e-05 s⁻¹ | kon [9]: 536000 M⁻¹ s⁻¹

B2: Ab9 (antibody, V domains shown)
VH: EVQLQQSGPELVRPGASVKISCKASGYSFTDYNMHWVKQSHGKSLEWIGYIYPYNGGAGYNQKFKSKATMNVGISSSTAYMELRSLTSEDSAVYYCARGDGNYVGDMDYWGQGTSVTVSS
VL: DIQMTQSPASLSASVGETVTITCRASENIYSYLAWYQQKQGKSPQLLVYNAKTLAEGVPSRFSGSGSGTQFSLKINSLQPEDFGSYYCQHHSGTPFTFGSGTKLEIK
notes: murine monoclonal, isotype G2b; also called murine Ab9
Baf3-mPRLR proliferation IC50 [10]: > 30 mg/L | Baf3-hPRLR proliferation IC50 [1]: 0.51 mg/L | T47D pPRLR ELISA IC50 [1]: 0.072 µg/mL | Nb2-11 proliferation IC50 [11]: > 30 mg/L | Baf3-cyPRLR proliferation IC50 [2]: 6.4 mg/L | EC50 [4]: 0.072 nM | FACS GeoMean-neg [12]: 0 | FACS GeoMean-neg [6]: 1870 | FACS GeoMean-neg [13]: 1 | Kd [9]: 0.226 nM | koff [9]: 0.000131 s⁻¹ | kon [9]: 577000 M⁻¹ s⁻¹
